In article PMC10869273:

Legend:
Assay in all cases: BLI
[1] = biological target: HA H1 Solomon (A/Solomon Islands/3/2006(H1N1)); settings: monovalent Fab
H1 Caledonia = biological target: H1 Caledonia
H2 Japan = biological target: H2 Japan
H3 Panama = biological target: H3 Panama
H3 Victoria = biological target: H3 Victoria
H5 Vietnam = biological target: H5 Vietnam

| Substance | Kd [1] [pM] | Kd (H1 Caledonia) [pM] | Kd (H2 Japan) [pM] | Kd (H3 Panama) [pM] | Kd (H3 Victoria) [pM] | Kd (H5 Vietnam) [pM] |
| --- | --- | --- | --- | --- | --- | --- |
| MEDI8852 unmutated common ancestor (UCA) Fab (wild-type) VH:K58S; VH:V65P; VL:G95P | 50000 | – | – | – | – | – |
| MEDI8852 VH E65P Fab | – | < 1 | < 1 | < 1 | < 1 | < 1 |
